± gives the standard deviation of the averaged measurements.

Consider seven sequences from the supplement of paper PMC11246515.

A short description of the data set: total protein half-life in vivo (active degradation + dilution); higher = more stable protein.
The mark [1] stands for this setting: E. coli NCM3722 delta-clpP delta-lon delta-hslV, growth: N-lim chemostat, doubling time 6 h.
Setting [2] is: E. coli NCM3722 delta-clpP, growth: N-lim chemostat, doubling time 6 h.
[3] abbreviates: E. coli NCM3722 delta-hslV, growth: N-lim chemostat, doubling time 6 h.
The mark [4] stands for this setting: E. coli NCM3722 delta-lon, growth: N-lim chemostat, doubling time 6 h.
[5] abbreviates: E. coli NCM3722 delta-smpB, growth: N-lim chemostat, doubling time 6 h.
The mark [6] stands for this setting: wild type E. coli NCM3722, growth: C-lim chemostat, doubling time 3 h.
Setting [7] is: wild type E. coli NCM3722, growth: C-lim chemostat, doubling time 6 h.
The mark [8] stands for this setting: wild type E. coli NCM3722, growth: C-lim chemostat, doubling time 12 h.
The mark [9] stands for this setting: wild type E. coli NCM3722, growth: N-lim chemostat, doubling time 6 h.
The mark [10] stands for this setting: wild type E. coli NCM3722, growth: N-lim chemostat, doubling time 12 h.
Where [11] appears, read: wild type E. coli NCM3722, growth: P-lim chemostat, doubling time 6 h.
The mark [12] stands for this setting: wild type E. coli NCM3722, growth: P-lim chemostat, doubling time 12 h.

Consider “MDIISVALKRHSTKAFDASKKLTPEQAEQIKTLLQYSPSSTNSQPWHFIVASTEEGKARVAKSAAGNYVFNERKMLDASHVVVFCAKTAMDDVWLKLVVDQEDADGRFATPEAKAANDKGRKFFADMHRKDLHDDAEWMAKQVYLNVGNFLLGVAALGLDAVPIEGFDAAILDAEFGLKEKGYTSLVVVPVGHHSVEDFNATLPKSRLPQNITLTEV”, for which the “total protein half-life in vivo” value by setting is: under setting [1], 2.56 ± 0.26 h; under setting [2], 1.66 ± 0.42 h; under setting [3], 1.405 ± 0.01 h; under setting [4], 2.01 ± 0.14 h; under setting [5], 1.62 ± 0.067 h; under setting [6], 2.72 ± 0.21 h. Also, the “total protein half-life in vivo” value by setting is: under setting [7], 3.38 ± 0.86 h; under setting [8], 5.94 ± 0.37 h; under setting [9], 1.58 ± 0.097 h; under setting [10], 2.17 ± 0.057 h; under setting [11], 4.45 ± 0.91 h; under setting [12], 7.04 ± 0.45 h.
As to “MLARGKTNLKIEEIRMHKHHEIHRVKPLMPALCRIRQGKKVINWETHTLTVDNNQIILFPCGYEFYIENYPEAGLYLAEMLYLPIDLIESFQKLYTVTDQIRNKTSFFLPQNPELIYCWEQLKTSVSRGFSTKIQEHLAMGVLLSLGVNHVNHLLLSYSKQSLISRCYNLLLSEPGTKWTANKVARYLYISVSTLHRRLASEGVSFQSILDDVRLNNALSAIQTTVKPISEIARENGYKCPSRFTERFHNRFNITPREIRKASRE”, the “total protein half-life in vivo” value by setting is: under setting [1], 5.01 ± 0.22 h; under setting [2], more than 8 h; under setting [5], 3.44 ± 0.094 h; under setting [6], 2 ± 0.38 h; under setting [7], 3.83 ± 0.19 h; under setting [8], 6.07 ± 1.8 h. Further, the “total protein half-life in vivo” value under setting [9] was determined as 4.12 ± 0.23 h, the “total protein half-life in vivo” value under setting [10] was determined as 7.29 ± 0.94 h, the “total protein half-life in vivo” value under setting [11] is 3.65 ± 1.5 h and the “total protein half-life in vivo” value under setting [12] came out at 5.86 ± 1.1 h.
Take “MSWLKEVIGTEKAVIAMCHLRALPGDPSFDAQLGMNWVIDKAWDDLMALQNGGVDAVMFSNEFSLPYLTKVRPETTAAMARIIGQLMSDIRIPFGVNVLWDPVASFDLAMATGAKFIREIFTGAYASDFGVWDTNVGETIRHQHRIGAGEVKTLFNIVPEAAVYLGNRDICSIAKSTVFNNHPDALCVSGLTAGTRTDSALLKRVKETVPDTVVLANTGVCLENVEEQLSIADGCVTATTFKKDGVFANFVDQARVSQFMEKVHHIRR”: the “total protein half-life in vivo” value under setting [1] turned out to be 4.34 ± 0.67 h; the “total protein half-life in vivo” value under setting [6] was found to be 1.07 ± 0.83 h; the “total protein half-life in vivo” value under setting [7] worked out at 5.65 ± 0.48 h; the “total protein half-life in vivo” value under setting [8] turned out to be 8.62 ± 0.11 h; the “total protein half-life in vivo” value under setting [12] was 3.45 h.
As for “MDSQRNLLVIALLFVSFMIWQAWEQDKNPQPQAQQTTQTTTTAAGSAADQGVPASGQGKLISVKTDVLDLTINTRGGDVEQALLPAYPKELNSTQPFQLLETSPQFIYQAQSGLTGRDGPDNPANGPRPLYNVEKDAYVLAEGQNELQVPMTYTDAAGNTFTKTFVLKRGDYAVNVNYNVQNAGEKPLEISSFGQLKQSITLPPHLDTGSSNFALHTFRGAAYSTPDEKYEKYKFDTIADNENLNISSKGGWVAMLQQYFATAWIPHNDGTNNFYTANLGNGIAAIGYKSQPVLVQPGQTGAMNSTLWVGPEIQDKMAAVAPHLDLTVDYGWLWFISQPLFKLLKWIHSFVGNWGFSIIIITFIVRGIMYPLTKAQYTSMAKMRMLQPKIQAMRERLGDDKQRISQEMMALYKAEKVNPLGGCFPLLIQMPIFLALYYMLMGSVELRQAPFALWIHDLSAQDPYYILPILMGVTMFFIQKMSPTTVTDPMQQKIMTFMPVIFTVFFLWFPSGLVLYYIVSNLVTIIQQQLIYRGLEKRGLHSREKKKS”, the “total protein half-life in vivo” value under setting [1] is 6.9 ± 1.3 h; the “total protein half-life in vivo” value under setting [2] was determined as 6.01 ± 0.51 h; the “total protein half-life in vivo” value under setting [3] is 6.03 ± 0.043 h; the “total protein half-life in vivo” value under setting [4] was found to be 6.29 ± 0.36 h; the “total protein half-life in vivo” value under setting [5] amounted to 6.08 ± 0.42 h; the “total protein half-life in vivo” value under setting [6] turned out to be 3.2 ± 0.74 h. Also, the “total protein half-life in vivo” value is, setting by setting: under setting [7], 6.37 ± 1.8 h; under setting [9], 6.08 ± 0.64 h; under setting [10], 12.2 ± 0.55 h; under setting [11], 6.66 ± 0.93 h; under setting [12], 12.6 ± 0.7 h.
In the case of “MSEKSIVQEARDIQLAMELITLGARLQMLESETQLSRGRLIKLYKELRGSPPPKGMLPFSTDWFMTWEQNVHASMFCNAWQFLLKTGLCNGVDAVIKAYRLYLEQCPQAEEGPLLALTRAWTLVRFVESGLLQLSSCNCCGGNFITHAHQPVGSFACSLCQPPSRAVKRRKLSQNPADIIPQLLDEQRVQAV [P0ABY7]”, the “total protein half-life in vivo” value is more than 8 h under setting [1], 4.44 h under setting [2], 0.252 h under setting [6] and 0.52 h under setting [7].
For “MVLQSTRWLALGYFTYFFSYGIFLPFWSVWLKGIGLTPETIGLLLGAGLVARFLGSLLIAPRVSDPSRLISALRVLALLTLLFAVAFWAGAHVAWLMLVMIGFNLFFSPLVPLTDALANTWQKQFPLDYGKVRLWGSVAFVIGSALTGKLVTMFDYRVILALLTLGVASMLLGFLIRPTIQPQGASRQQESTGWSAWLALVRQNWRFLACVCLLQGAHAAYYGFSAIYWQAAGYSASAVGYLWSLGVVAEVIIFALSNKLFRRCSARDMLLISAICGVVRWGIMGATTALPWLIVVQILHCGTFTVCHLAAMRYIAARQGSEVIRLQAVYSAVAMGGSIAIMTVFAGFLYQYLGHGVFWVMALVALPAMFLRPKVVPSC”, the “total protein half-life in vivo” value under setting [4] was 6.67 h, the “total protein half-life in vivo” value under setting [5] came out at 4.51 h, the “total protein half-life in vivo” value under setting [7] came out at 2.77 h and the “total protein half-life in vivo” value under setting [8] turned out to be 10.4 ± 0.17 h.
With “MTALNKKWLSGLVAGALMAVSVGTLAAEQKTLHIYNWSDYIAPDTVANFEKETGIKVVYDVFDSNEVLEGKLMAGSTGFDLVVPSASFLERQLTAGVFQPLDKSKLPEWKNLDPELLKLVAKHDPDNKFAMPYMWATTGIGYNVDKVKAVLGENAPVDSWDLILKPENLEKLKSCGVSFLDAPEEVFATVLNYLGKDPNSTKADDYTGPATDLLLKLRPNIRYFHSSQYINDLANGDICVAIGWAGDVWQASNRAKEAKNGVNVSFSIPKEGAMAFFDVFAMPADAKNKDEAYQFLNYLLRPDVVAHISDHVFYANANKAATPLVSAEVRENPGIYPPADVRAKLFTLKVQDPKIDRVRTRAWTKVKSGK”, the “total protein half-life in vivo” value by setting is: under setting [1], 4.64 ± 0.23 h; under setting [2], 6.13 ± 0.89 h; under setting [3], 6.35 ± 0.38 h; under setting [4], 7 ± 1.2 h; under setting [5], 5.81 ± 0.13 h; under setting [6], 2.94 ± 0.29 h. The “total protein half-life in vivo” value under setting [7] is 6.34 ± 0.41 h; the “total protein half-life in vivo” value under setting [8] is 13 ± 0.15 h; the “total protein half-life in vivo” value under setting [9] was found to be 6.215 ± 0.018 h; the “total protein half-life in vivo” value under setting [10] was found to be 12.89 ± 0.11 h; the “total protein half-life in vivo” value under setting [11] was 6.46 ± 0.65 h; the “total protein half-life in vivo” value under setting [12] came out at 13.7 ± 1.1 h.
